In US20240400675A1 (published 2024):
Substitutions are numbered along the chain they refer to.

T1: human CLDN6 (human, UniProt P56747 1-220)
T1 construct: also called Claudin 6
T1 sequence: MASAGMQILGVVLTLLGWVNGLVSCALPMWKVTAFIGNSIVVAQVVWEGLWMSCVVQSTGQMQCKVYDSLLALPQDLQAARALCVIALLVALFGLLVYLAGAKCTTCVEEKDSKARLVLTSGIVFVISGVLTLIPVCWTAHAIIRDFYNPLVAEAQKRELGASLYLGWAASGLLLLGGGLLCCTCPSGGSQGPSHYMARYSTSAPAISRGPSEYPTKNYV

B1: XENP37227 (C6-30_H1.9_L1.187), 2+1 Fab2-scFv-Fc bsAb with CD3 High-Int #1 (bispecific antibody)
heavy 1: QVQLVQSGAEVKKPGASVKVSCKTSGYTFTEYTMHWVRQAPGQSLEWMGGIDPNNANTHYNQKFQGRVTITVDKSASTAYMELSSLRSEDTAVYYCARIYYFGRLYFDFWGAGTLVTVSSASTKGPSVFPLAPSSKSTSGGTAALGCLVKDYFPEPVTVSWNSGALTSGVHTFPAVLQSSGLYSLSSVVTVPSSSLGTQTYICNVNHKPSDTKVDKKVEPKSCDKTHTCPPCPAPPVAGPSVFLFPPKPKDTLMISRTPEVTCVVVDVKHEDPEVKFNWYVDGVEVHNAKTKPREEEYNSTYRVVSVLTVLHQDWLNGKEYKCKVSNKALPAPIEKTISKAKGQPREPQVYTLPPSREEMTKNQVSLTCDVSGFYPSDIAVEWESDGQPENNYKTTPPVLDSDGSFFLYSKLTVDKSRWEQGDVFSCSVMHEALHNHYTQKSLSLSPGK
heavy 2: QVQLVQSGAEVKKPGASVKVSCKTSGYTFTEYTMHWVRQAPGQSLEWMGGIDPNNANTHYNQKFQGRVTITVDKSASTAYMELSSLRSEDTAVYYCARIYYFGRLYFDFWGAGTLVTVSSASTKGPSVFPLAPSSKSTSGGTAALGCLVKDYFPEPVTVSWNSGALTSGVHTFPAVLQSSGLYSLSSVVTVPSSSLGTQTYICNVNHKPSNTKVDKKVEPKSCGGGGSGGGGSQAVVTQEPSLTVSPGGTVTLTCGSSTGAVTTSNYANWVQQKPGKSPRGLIGGTNKRAPGVPARFSGSLLGGKAALTISGAQPEDEADYYCALWYSNHWVFGGGTKLTVLGKPGSGKPGSGKPGSGKPGSEVQLVESGGGLVQPGGSLRLSCAASGFTFSTYAMNWVRQAPGKGLEWVGRIRSKANNYATYYADSVKGRFTISRDDSKNTLYLQMNSLRAEDTAVYYCVRHGNFGDSYVSWFAYWGQGTLVTVSSGGGGSGGGGSKTHTCPPCPAPPVAGPSVFLFPPKPKDTLMISRTPEVTCVVVDVKHEDPEVKFNWYVDGVEVHNAKTKPREEQYNSTYRVVSVLTVLHQDWLNGKEYKCKVSNKALPAPIEKTISKAKGQPREPQVYTLPPSREQMTKNQVKLTCLVKGFYPSDIAVEWESNGQPENNYKTTPPVLDSDGSFFLYSKLTVDKSRWQQGNVFSCSVMHEALHNHYTQKSLSLSPGK
light: not shown
notes: copies: 1 + 1 + 2
B2: XENP37231 (C6-30_H1.24_L1.187), 2+1 Fab2-scFv-Fc bsAb with CD3 High-Int #1 (bispecific antibody)
heavy 1: B1 heavy 1 with A56G, F102L
heavy 2: B1 heavy 2 with A56G, F102L
light: not shown
notes: copies: 1 + 1 + 2
B3: XENP37233 (C6-30_H2.91_L1.187), 2+1 Fab2-scFv-Fc bsAb with CD3 High-Int #1 (bispecific antibody)
heavy 1: EVQLVQSGAEVKKPGESLRISCKTSGYTFTEYTMHWVRQMPGKSLEWMGGIDPNNFNTHYNQKFQGHVTISVDKSISTAYLQWSSLKASDTAMYYCARIYYFGRLYFDFWGAGTLVTVSSASTKGPSVFPLAPSSKSTSGGTAALGCLVKDYFPEPVTVSWNSGALTSGVHTFPAVLQSSGLYSLSSVVTVPSSSLGTQTYICNVNHKPSDTKVDKKVEPKSCDKTHTCPPCPAPPVAGPSVFLFPPKPKDTLMISRTPEVTCVVVDVKHEDPEVKFNWYVDGVEVHNAKTKPREEEYNSTYRVVSVLTVLHQDWLNGKEYKCKVSNKALPAPIEKTISKAKGQPREPQVYTLPPSREEMTKNQVSLTCDVSGFYPSDIAVEWESDGQPENNYKTTPPVLDSDGSFFLYSKLTVDKSRWEQGDVFSCSVMHEALHNHYTQKSLSLSPGK
heavy 2: EVQLVQSGAEVKKPGESLRISCKTSGYTFTEYTMHWVRQMPGKSLEWMGGIDPNNFNTHYNQKFQGHVTISVDKSISTAYLQWSSLKASDTAMYYCARIYYFGRLYFDFWGAGTLVTVSSASTKGPSVFPLAPSSKSTSGGTAALGCLVKDYFPEPVTVSWNSGALTSGVHTFPAVLQSSGLYSLSSVVTVPSSSLGTQTYICNVNHKPSNTKVDKKVEPKSCGGGGSGGGGSQAVVTQEPSLTVSPGGTVTLTCGSSTGAVTTSNYANWVQQKPGKSPRGLIGGTNKRAPGVPARFSGSLLGGKAALTISGAQPEDEADYYCALWYSNHWVFGGGTKLTVLGKPGSGKPGSGKPGSGKPGSEVQLVESGGGLVQPGGSLRLSCAASGFTFSTYAMNWVRQAPGKGLEWVGRIRSKANNYATYYADSVKGRFTISRDDSKNTLYLQMNSLRAEDTAVYYCVRHGNFGDSYVSWFAYWGQGTLVTVSSGGGGSGGGGSKTHTCPPCPAPPVAGPSVFLFPPKPKDTLMISRTPEVTCVVVDVKHEDPEVKFNWYVDGVEVHNAKTKPREEQYNSTYRVVSVLTVLHQDWLNGKEYKCKVSNKALPAPIEKTISKAKGQPREPQVYTLPPSREQMTKNQVKLTCLVKGFYPSDIAVEWESNGQPENNYKTTPPVLDSDGSFFLYSKLTVDKSRWQQGNVFSCSVMHEALHNHYTQKSLSLSPGK
light: not shown
notes: copies: 1 + 1 + 2

Biological target: T1, human CLDN6
Test: flow cytometry on HEK293E cells expressing CLDN6
Experimental: The following experiments used to screen CLDN6 binding domains were generally performed as follows. HEK293T or HEK293E cells were respectively stably or transiently transfected to express CLDN6, CLND9, or other targets of interest. 48 hours post transfection, cells were harvested and incubated with dilutions of the indicated test articles for 1 hour at 4° C. […] Binding was then assessed via flow cytometry.

Binding result, binds:
B1
B2
B3
